Experimental data reported in the supplement of paper PMC7877785.
± gives the uncertainty stated by the source.

Test: self-splicing fitness, log relative to wild type (ln ratio); higher = more splicing; Tetrahymena group I intron in knt gene, E. coli kanamycin selection, DiMSum; sequences stand for … in CUCUCU…GGAGGGAAAAGUUAUCAGGCAUGCACCUGGUAGCUAGUCUUUAAACCAAUAGAUUGCAUCGGUUUAAAAGGCAAGACCGUCAAAUUGCGGGAAAGGGGUCAACAGCCGUUCAGUACCAAGUCUCAGGGGAAACUUUGAGAUGGCCUUGCAAAGGGUAUGGUAAUAAGCUGACGGACAUGGUCCUAACCACGCAGCCAAGUCCUAAGUCAACAGAUCUUCUGUUGAUAUGGAUGCAGUUCACAGACUAAAUGUCGGUCGGGGAAGAUGUAUUCUUCUCAUAAGAUAUAGUCGGACCUCUCCUUAAUGGGAGCUAGCGGAUGAAGUGAUGCAACACUGGAGCCGCUGGGAACUAAUUUGUAUGCGAAAGUAUAUUGAUUAGUUUUGGAGUACUCGUGGUCG
In short: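 Library with all eight P1ex-region intron nucleotides randomised, intron inside the knt kanamycin-resistance gene on pET-22b(+), in E. coli BL21(DE3). Cells grew overnight at 37°C or 30°C on LB agar with or without 25 μg/mL kanamycin (plus 100 μg/mL carbenicillin, 50 μM IPTG, 0.2% rhamnose), in six replicate transformations. Pooled colonies were amplicon-sequenced on Illumina HiSeq 2500. DiMSum fitness is the error-weighted combination of wild-type-normalised replicate fold changes, kanamycin versus none.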

Sequence	self-splicing fitness (ln) (30 °C)	self-splicing fitness (ln) (37 °C)
CUAAAGCAAUAUUACGAGGA	-4.32 ± 0.29	-1.62 ± 0.27
CUAAAGCAAUAUUACGAUGG	-0.196 ± 0.058	0.0185 ± 0.091
CUAAAGCAAUAUUACGAUUC	-3.33 ± 0.31	-3.73 ± 0.46
CUAAAGCAAUAUUACGCAAU	-3.94 ± 0.21	-2.97 ± 0.24
CUAAAGCAAUAUUACGCCUG	0.183 ± 0.087	0.129 ± 0.099
CUAAAGCAAUAUUACGCCUU	-3.79 ± 0.26	-1.25 ± 0.22
CUAAAGCAAUAUUACGCGAU	-0.384 ± 0.051	0.349 ± 0.062
CUAAAGCAAUAUUACGCGGA	-3.85 ± 0.3	-3.62 ± 0.24
CUAAAGCAAUAUUACGCGGU	-1.44 ± 0.097	-1.2 ± 0.094
CUAAAGCAAUAUUACGGACA	-3.1 ± 0.17	-2.34 ± 0.21
CUAAAGCAAUAUUACGGACG	0.255 ± 0.084	-0.189 ± 0.092
CUAAAGCAAUAUUACGGCGA	-3.59 ± 0.25	-1.96 ± 0.19
CUAAAGCAAUAUUACGGCGU	-3.68 ± 0.23	-3.05 ± 0.35
CUAAAGCAAUAUUACGGGAU	-1.86 ± 0.087	-0.984 ± 0.12
CUAAAGCAAUAUUACGGGUC	-3.75 ± 0.21	-3.33 ± 0.37
CUAAAGCAAUAUUACGGUAA	-3.53 ± 0.15	-2.36 ± 0.18
CUAAAGCAAUAUUACGGUGA	-4.11 ± 0.2	-1.6 ± 0.14
CUAAAGCAAUAUUACGUACG	0.59 ± 0.095	0.0866 ± 0.099
CUAAAGCAAUAUUACGUAUU	-3.61 ± 0.19	-2.17 ± 0.24

Sequence	self-splicing fitness (ln) (30 °C)	self-splicing fitness (ln) (37 °C)
CUAAAGCAAUAUUACGUCAU	-4.85 ± 0.31	-2.78 ± 0.23
CUAAAGCAAUAUUACGUCCA	-3.01 ± 0.19	-2.79 ± 0.31
CUAAAGCAAUAUUACGUCCG	0.264 ± 0.12	0.68 ± 0.16
CUAAAGCAAUAUUACGUCGU	-4.09 ± 0.2	-2.88 ± 0.22
CUAAAGCAAUAUUACGUGAG	-0.0713 ± 0.047	-0.2 ± 0.066
CUAAAGCAAUAUUACGUGAU	-1.35 ± 0.07	-1.14 ± 0.11
CUAAAGCAAUAUUACGUGCU	-2.89 ± 0.14	-2.75 ± 0.25
CUAAAGCAAUAUUACGUGGG	-2.9 ± 0.11	-1.09 ± 0.092
CUAAAGCAAUAUUACGUUCA	-3.24 ± 0.12	-1.56 ± 0.15
CUAAAGCAAUAUUACGUUCC	-3.89 ± 0.4	-2.25 ± 0.41
CUACAGCAAUAUUACGAAAA	-2.2 ± 0.21	-1.92 ± 0.21
CUACAGCAAUAUUACGACAG	-0.672 ± 0.088	0.096 ± 0.11
CUACAGCAAUAUUACGACUC	-4.35 ± 0.22	-2.7 ± 0.24
CUACAGCAAUAUUACGAUCC	-4.14 ± 0.36	-1.44 ± 0.26
CUACAGCAAUAUUACGAUCG	-0.0619 ± 0.061	0.736 ± 0.085
CUACAGCAAUAUUACGCAAA	-3.36 ± 0.24	-3.49 ± 0.25
CUACAGCAAUAUUACGCAGA	-3.97 ± 0.28	-3.07 ± 0.22
CUACAGCAAUAUUACGCAUC	-3.65 ± 0.27	-1.5 ± 0.16
